For assay [1], the target named is Full-length VEX1 tagged with 12xmyc at the C-terminus at the native locus (Trypanosoma brucei). Nature of the assay: SEC; trypanosome extracts (1% CHAPS in PBS, micrococcal nuclease treated) on a BioBasic SEC 1000 column at 5 °C, elution in 0.3% CHAPS in PBS; fractions analysed by anti-myc protein blot; calibrated with thyroglobulin, ferritin, BSA and myoglobin. In general terms: Size exclusion chromatography separates by hydrodynamic size, large species first.

The target of assay [2] is VSG exclusion factor 2 (VEX2) with an N-terminal 6x c-myc tag, tagged at the native locus (T. brucei). The assay is described as follows: native gel or EMSA; blue native PAGE (3-12% gradient, 4 °C) of digitonin lysates treated with micrococcal nuclease, blotted for the myc-tagged protein; with and without knockdown of VEX1, VEX2 or CAF-1. On the technique in general: Mobility shift assays separate free from complexed probe on a gel.

Assay [3] concerns the target VSG exclusion factor 1 (VEX1), full length, with a C-terminal 12xmyc tag at the native locus (T. brucei). The assay is described as above.

Several values for one entry are separate records, joined by “and”; a condition that tells them apart may be missing. Equal entries are not always repeated.

By stoichiometry N is commonly meant a count of units in the complex or per binding partner. As for “Full-length VEX1 tagged with 12xmyc at the C-terminus at the native locus (natural protein)”, in assay [1], the stoichiometry N is 2.

As to “VSG exclusion factor 2 (VEX2) with an N-terminal 6x c-myc tag, tagged at the native locus (natural protein)”, the stoichiometry N in assay [2] was 2 and 6.

“VSG exclusion factor 1 (VEX1), full length, with a C-terminal 12xmyc tag at the native locus (natural protein)” yielded a stoichiometry N in assay [3] of 2.

For the origin of these results see article PMC10713589.
